Laboratory results reported in patent publication US20230192820A1 (published 2023).

Target: stabilized trimer of the full ectodomain of SARS-CoV-2 spike protein (residues 1-1208, NIAID VRC7471) (SARS-CoV-2, UniProt P0DTC2 14-1208)

Row | Binder | Kd
1 | MAb362 IgA1 (monomeric) (antibody, V domains shown) VH: QVQLVESGGGVVQPGRSLRLSCAASGFSFSSYGMHWVRQAPGKGLEWVAVIWYDGSDKYYADSVKGRFTISRDNSKNTLYLQLNSLRAEDTAIYYCARERYFDWIFDFWGQGTLVTVSS VL: not shown | 0.17 nM
2 | MAb362 IgG1 (antibody, V domains shown) VH: QVQLVESGGGVVQPGRSLRLSCAASGFSFSSYGMHWVRQAPGKGLEWVAVIWYDGSDKYYADSVKGRFTISRDNSKNTLYLQLNSLRAEDTAIYYCARERYFDWIFDFWGQGTLVTVSS VL: not shown | 27 nM
